Key:
[1] = target: MUC5AC expressed by CFPAC-1 pancreatic tumor cells (human) (UniProt P98088); test: immunofluorescence, fixed and permeabilized CFPAC-1 cells, 2 µg/ml
[2] = target: MUC5AC expressed by CFPAC-1 pancreatic tumor cells (human) (UniProt P98088); test: flow cytometry, CFPAC-1 pancreatic tumor cells
MUC5AC (human) [3] = target: MUC5AC (human) (UniProt P98088); test: flow cytometry, Colo-205 colorectal tumor cells
MUC5AC (human) [4] = target: MUC5AC (human) (UniProt P98088); test: flow cytometry, SW480 colorectal tumor cells
MUC5AC (human) [5] = target: MUC5AC (human) (UniProt P98088); test: FACS, Colo-205 cells, 2 µg/ml FITC antibody
MUC5AC (human) [6] = target: MUC5AC (human) (UniProt P98088); test: FACS, SW480 cells, 2 µg/ml FITC antibody
[7] = target: MUC5AC expressed by CFPAC-1 pancreatic tumor cells (human) (UniProt P98088); test: FACS, CFPAC cells, 2 µg/ml FITC antibody
[8] = target: MUC5AC expressed by LS174T colorectal tumor cells (human) (UniProt P98088); test: FACS, LS174 cells, 2 µg/ml FITC antibody
[9] = target: MUC5AC expressed by LS174T colorectal tumor cells (human) (UniProt P98088); test: flow cytometry, LS174T colorectal tumor cells
[10] = target: MUC5AC expressed by CFPAC-1 pancreatic tumor cells (human) (UniProt P98088); test: rosetting assay, antibody-coupled beads on CFPAC-1 cells

MUC5AC expressed by LS174T colorectal tumor cells (human), sequence (P98088 other isoform, or with tags, fused parts or gaps limits assumed, change not shown): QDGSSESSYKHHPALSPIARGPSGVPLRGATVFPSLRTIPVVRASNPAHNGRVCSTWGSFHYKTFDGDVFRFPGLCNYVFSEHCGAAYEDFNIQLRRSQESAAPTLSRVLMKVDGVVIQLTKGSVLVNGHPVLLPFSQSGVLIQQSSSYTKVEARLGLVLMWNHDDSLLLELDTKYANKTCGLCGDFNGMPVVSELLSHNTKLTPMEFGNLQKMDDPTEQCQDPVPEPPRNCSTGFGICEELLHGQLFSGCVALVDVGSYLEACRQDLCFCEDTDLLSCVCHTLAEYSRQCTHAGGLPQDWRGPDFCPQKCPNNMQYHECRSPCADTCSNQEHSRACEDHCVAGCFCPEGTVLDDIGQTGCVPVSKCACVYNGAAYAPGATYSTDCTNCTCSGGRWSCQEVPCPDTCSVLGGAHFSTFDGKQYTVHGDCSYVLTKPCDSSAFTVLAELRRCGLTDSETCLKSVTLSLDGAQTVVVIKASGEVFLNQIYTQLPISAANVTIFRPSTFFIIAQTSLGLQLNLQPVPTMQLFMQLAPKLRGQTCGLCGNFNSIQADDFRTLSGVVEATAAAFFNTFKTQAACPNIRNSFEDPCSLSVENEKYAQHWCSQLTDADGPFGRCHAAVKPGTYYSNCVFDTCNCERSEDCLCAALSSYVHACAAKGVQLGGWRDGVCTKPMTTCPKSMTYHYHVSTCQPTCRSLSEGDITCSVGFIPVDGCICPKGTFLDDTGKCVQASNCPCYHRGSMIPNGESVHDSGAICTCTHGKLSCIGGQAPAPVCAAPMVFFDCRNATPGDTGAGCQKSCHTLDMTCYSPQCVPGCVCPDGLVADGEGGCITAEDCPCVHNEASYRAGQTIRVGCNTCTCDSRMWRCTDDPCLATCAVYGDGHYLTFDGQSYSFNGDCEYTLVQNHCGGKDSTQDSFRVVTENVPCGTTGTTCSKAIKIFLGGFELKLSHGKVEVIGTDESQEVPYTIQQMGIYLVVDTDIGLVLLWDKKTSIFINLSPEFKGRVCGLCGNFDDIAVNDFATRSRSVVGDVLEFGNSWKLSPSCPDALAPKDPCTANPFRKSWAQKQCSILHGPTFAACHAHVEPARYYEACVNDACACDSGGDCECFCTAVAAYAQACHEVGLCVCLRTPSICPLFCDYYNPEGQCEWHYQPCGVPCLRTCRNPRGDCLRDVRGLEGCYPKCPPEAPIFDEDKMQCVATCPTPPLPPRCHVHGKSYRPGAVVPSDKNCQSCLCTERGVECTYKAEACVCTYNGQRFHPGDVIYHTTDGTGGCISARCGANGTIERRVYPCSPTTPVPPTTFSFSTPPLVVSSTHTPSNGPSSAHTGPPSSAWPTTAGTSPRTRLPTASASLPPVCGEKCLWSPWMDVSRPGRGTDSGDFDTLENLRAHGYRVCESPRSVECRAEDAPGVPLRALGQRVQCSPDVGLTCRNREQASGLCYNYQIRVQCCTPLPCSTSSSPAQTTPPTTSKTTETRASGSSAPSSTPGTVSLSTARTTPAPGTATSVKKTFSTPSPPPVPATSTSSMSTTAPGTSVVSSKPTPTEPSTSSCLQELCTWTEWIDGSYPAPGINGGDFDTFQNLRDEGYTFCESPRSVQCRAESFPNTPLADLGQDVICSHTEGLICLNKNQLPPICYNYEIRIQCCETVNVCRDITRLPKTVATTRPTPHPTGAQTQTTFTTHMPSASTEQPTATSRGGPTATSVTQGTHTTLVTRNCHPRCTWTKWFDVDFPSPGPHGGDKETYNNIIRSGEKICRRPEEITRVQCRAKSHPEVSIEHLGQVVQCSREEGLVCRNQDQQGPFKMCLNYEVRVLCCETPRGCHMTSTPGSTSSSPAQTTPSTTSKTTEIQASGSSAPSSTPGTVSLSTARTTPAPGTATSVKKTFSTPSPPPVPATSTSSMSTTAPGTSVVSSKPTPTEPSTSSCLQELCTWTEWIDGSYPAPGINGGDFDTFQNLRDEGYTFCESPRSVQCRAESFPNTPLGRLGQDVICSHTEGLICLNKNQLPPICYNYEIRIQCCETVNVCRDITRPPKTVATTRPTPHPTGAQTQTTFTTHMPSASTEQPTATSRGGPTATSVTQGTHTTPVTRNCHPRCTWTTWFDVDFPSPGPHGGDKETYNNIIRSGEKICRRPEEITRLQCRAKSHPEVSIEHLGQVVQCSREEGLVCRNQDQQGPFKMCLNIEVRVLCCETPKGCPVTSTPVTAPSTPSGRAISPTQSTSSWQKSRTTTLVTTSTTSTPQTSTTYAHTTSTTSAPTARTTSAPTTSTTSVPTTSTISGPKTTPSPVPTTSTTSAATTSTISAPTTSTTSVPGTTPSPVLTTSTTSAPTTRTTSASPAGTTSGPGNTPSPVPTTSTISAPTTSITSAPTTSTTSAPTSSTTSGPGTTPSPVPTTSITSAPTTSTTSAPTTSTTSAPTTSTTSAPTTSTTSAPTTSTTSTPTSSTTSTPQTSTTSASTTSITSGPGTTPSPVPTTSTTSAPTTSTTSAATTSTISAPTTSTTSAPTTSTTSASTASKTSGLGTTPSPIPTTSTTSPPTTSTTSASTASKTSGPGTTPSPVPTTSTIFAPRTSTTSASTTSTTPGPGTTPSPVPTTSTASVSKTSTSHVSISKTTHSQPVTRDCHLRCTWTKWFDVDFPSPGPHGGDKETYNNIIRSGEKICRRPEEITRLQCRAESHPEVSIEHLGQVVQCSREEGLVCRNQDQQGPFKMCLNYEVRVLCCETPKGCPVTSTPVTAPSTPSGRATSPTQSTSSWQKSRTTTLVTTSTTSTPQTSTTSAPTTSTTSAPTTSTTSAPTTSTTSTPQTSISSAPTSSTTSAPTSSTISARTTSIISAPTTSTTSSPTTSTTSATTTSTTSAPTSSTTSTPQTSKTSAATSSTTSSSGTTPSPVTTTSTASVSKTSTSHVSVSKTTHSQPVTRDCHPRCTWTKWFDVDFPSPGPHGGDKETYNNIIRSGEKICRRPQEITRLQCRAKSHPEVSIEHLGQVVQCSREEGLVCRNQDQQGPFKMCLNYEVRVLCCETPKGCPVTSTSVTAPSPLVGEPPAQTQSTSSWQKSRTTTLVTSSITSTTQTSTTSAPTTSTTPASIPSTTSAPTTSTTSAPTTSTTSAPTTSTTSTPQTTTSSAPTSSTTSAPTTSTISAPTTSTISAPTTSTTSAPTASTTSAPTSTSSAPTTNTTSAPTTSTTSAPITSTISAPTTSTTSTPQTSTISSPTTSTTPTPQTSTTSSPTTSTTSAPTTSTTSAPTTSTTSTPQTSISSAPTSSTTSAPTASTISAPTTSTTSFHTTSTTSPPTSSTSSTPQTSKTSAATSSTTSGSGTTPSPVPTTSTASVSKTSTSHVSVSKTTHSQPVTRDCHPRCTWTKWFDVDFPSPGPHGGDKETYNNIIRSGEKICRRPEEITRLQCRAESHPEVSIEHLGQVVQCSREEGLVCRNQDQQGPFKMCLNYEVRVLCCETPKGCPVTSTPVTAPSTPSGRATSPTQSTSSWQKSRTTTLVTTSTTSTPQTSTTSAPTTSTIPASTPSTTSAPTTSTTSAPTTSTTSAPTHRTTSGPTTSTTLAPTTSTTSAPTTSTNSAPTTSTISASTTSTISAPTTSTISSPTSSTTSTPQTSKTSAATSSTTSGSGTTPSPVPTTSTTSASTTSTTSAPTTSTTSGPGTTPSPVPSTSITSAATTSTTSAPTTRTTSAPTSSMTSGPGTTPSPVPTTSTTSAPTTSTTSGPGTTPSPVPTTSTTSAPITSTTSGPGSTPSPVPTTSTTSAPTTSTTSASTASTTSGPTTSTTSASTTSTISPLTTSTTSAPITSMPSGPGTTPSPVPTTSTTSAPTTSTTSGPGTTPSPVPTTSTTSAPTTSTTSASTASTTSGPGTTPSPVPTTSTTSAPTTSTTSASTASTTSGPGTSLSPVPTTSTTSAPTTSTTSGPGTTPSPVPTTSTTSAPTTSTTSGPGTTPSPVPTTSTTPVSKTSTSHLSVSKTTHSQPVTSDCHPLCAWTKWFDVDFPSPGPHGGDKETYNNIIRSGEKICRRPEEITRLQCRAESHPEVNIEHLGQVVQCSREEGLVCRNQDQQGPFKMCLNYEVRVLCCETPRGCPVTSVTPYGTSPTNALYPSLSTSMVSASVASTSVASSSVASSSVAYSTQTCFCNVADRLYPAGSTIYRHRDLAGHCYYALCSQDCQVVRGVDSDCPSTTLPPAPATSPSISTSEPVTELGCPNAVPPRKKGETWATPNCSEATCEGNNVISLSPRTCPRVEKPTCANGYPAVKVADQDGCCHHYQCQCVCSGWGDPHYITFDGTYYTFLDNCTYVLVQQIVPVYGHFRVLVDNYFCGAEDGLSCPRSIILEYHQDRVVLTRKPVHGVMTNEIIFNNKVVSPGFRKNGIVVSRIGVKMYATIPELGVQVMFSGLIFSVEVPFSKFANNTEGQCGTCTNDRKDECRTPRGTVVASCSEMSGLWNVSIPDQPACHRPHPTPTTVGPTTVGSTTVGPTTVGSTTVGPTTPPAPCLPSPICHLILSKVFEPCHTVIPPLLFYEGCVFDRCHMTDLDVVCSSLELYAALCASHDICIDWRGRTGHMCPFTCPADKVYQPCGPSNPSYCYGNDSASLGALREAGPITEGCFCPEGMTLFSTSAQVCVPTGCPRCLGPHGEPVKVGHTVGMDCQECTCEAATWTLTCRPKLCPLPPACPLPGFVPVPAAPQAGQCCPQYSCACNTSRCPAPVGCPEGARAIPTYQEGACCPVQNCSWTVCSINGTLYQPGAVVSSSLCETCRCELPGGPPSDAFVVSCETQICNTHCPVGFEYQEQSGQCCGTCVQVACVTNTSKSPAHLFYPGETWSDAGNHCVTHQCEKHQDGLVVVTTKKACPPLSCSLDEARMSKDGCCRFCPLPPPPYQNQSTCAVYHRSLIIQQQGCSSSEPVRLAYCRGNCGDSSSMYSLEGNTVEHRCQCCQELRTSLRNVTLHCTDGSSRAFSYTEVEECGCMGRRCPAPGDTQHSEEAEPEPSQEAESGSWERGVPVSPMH
MUC5AC (human), sequence (P98088 other isoform, or with tags, fused parts or gaps limits assumed): as the sequence (P98088 other isoform, or with tags, fused parts or gaps limits assumed, change not shown) above
MUC5AC expressed by CFPAC-1 pancreatic tumor cells (human), sequence (P98088 other isoform, or with tags, fused parts or gaps limits assumed): as the sequence (P98088 other isoform, or with tags, fused parts or gaps limits assumed, change not shown) above

How did the % of cells stained [1] turn out when 1-13M1 (Abcam Inc.) (antibody) was run?
Its % of cells stained is 100%.

With 2-11M1 (Abcam Inc.) (antibody) as the substance, how does the % of cells stained [1] read?
The % of cells stained was < 5%.

Which % Cells Stained [2] does the source give for Isotype control antibody here?
Its % Cells Stained is 1.79%.

What about the mfi [2] of the same substance?
The mfi was 25 mfi.

What about the % Cells Stained (MUC5AC (human) [3]) of the same substance?
The % Cells Stained was 2.33%.

What about the mfi (MUC5AC (human) [3]) of the same substance?
The mfi was 34 mfi.

What about the % Cells Stained (MUC5AC (human) [4]) of the same substance?
Its % Cells Stained is 3.38%.

And the mfi (MUC5AC (human) [4])?
The mfi was 56 mfi.

What about the Percent positive (MUC5AC (human) [5]) of the same substance?
Its Percent positive is 2.33%.

And the Percent positive (MUC5AC (human) [6])?
The Percent positive was 3.38%.

What about the Percent positive [7] of the same substance?
The Percent positive was 1.79%.

What about the Percent positive [8] of the same substance?
The Percent positive was 3.85%.

What about the % Cells Stained [9] of the same substance?
The % Cells Stained was 3.85%.

What about the mfi [9] of the same substance?
The mfi was 35 mfi.

For human IgG (antibody), which Rosetted cells (>8 beads) [10] is on record?
Its Rosetted cells (>8 beads) is 0%.
